Data from the nanobody polyreactivity screen of Harvey et al. (2022).

Assay: yeast display, Sf9 membrane polyspecificity reagent, FACS + sequencing; frameworks hold sequencing errors
Outline: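 Sorting gates, low and high (top ~1%), were placed on anti-HA fluorescence to track expression and on streptavidin fluorescence to track reagent binding. A clone's polyreactivity label is taken from the gate it came out of. The reagent was 10% biotinylated, detergent-solubilized Sf9 membrane, applied for 1 hour at 4 °C to galactose-induced yeast display cells.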
For “QVQLVESGGGLVQAGGRLRLSCAASGRIFRYNAMGWYRQAPGKERELVASITSAGSTNYADSVKGRFTISRDNAKITVYLLMNSLKPEDTEVYYCNKRRAYGYYLFDYWGQGTQVTVSS”, the “polyreactivity (PSR sort gate)” value was “high polyreactivity”. With “QVQLVESGGGLVQAGGRLRLSCAASGRIFSTYAMGWYRQAPGKQRQLVAAINKSGGSTYYADSVKGRFTISRDTAKNTVYLQMNSLKPEDTAVYYCAADQSYPKRLPSFEYWGQGTQVTVSS” the “polyreactivity (PSR sort gate)” value was “low polyreactivity”. In the case of “QVQLVESGGGLVQAGGRLRLSCAASGRIFTYYVMGWYRQAPGKERELVASISGSGGRTYYADSVKGRFTISRDNAKNTVYLQMNSLKPEDTAVYYCATRLYKRTRTITYGYWGQGTQVTVSS”, the “polyreactivity (PSR sort gate)” value is reported as “high polyreactivity”. In the case of “QVQLVESGGGLVQAGGRLRLSCAASGRIFYNYAMGWYRQAPGKERELVAAISGSGGSTYYADSVKGRFTISRDNAKNTVYLQMNSLKPEDTAVYYCSTSGPQYYSRNFDYWGQGTQVTVSS”, the “polyreactivity (PSR sort gate)” value is reported as “low polyreactivity”. With “QVQLVESGGGLVQAGGRLRLSCAASGRIFYNYAMGWYRQAPGKERELVASINFSGTRTYYADSVKGRFTISRDYAKNHVYLQMNSLKPEDTAVYYCAARQAHGYYYWGQGTQVTVSS” the “polyreactivity (PSR sort gate)” value was “high polyreactivity”. With “QVQLVESGGGLVQAGGRLRLSCAASGRIGPNVMGWYRQPPGKERELVAAISRRGGSTYYADSVKGRFTISRDNAKNTVYLQMNSLKPEDTAVYYCAKDLYTLAVKGGDYWGQGTQVTVSS” the “polyreactivity (PSR sort gate)” value was “high polyreactivity”. In the case of “QVQLVESGGGLVQAGGRLRLSCAASGRTFAVYDMGWYIQAPGKERELVAAITYGGGRTYYADSVKGRFTISRDYAKNTVYLQMISLKPEDTSVYYCAADYYGTDYDYWGQGTQVTVSS”, the “polyreactivity (PSR sort gate)” value is reported as “low polyreactivity”. For “QVQLVESGGGLVQAGGRLRLSCAASGRTFEGYAMAWYRQAPGKERELVAAISGSSGSTYYADSVKGRFTISRDNAKNTVYLQMNSLKPEDTAVYYCNADYDWPGGSDYWGQGTQVTVSS”, the “polyreactivity (PSR sort gate)” value was “low polyreactivity”. In the case of “QVQLVESGGGLVQAGGRLRLSCAASGRTFIPYAMGWYRQAPGNERELVAAIRNGGSTNYADSVKGRFTISRDIAKNTVYLQMNSLKPEDTAVYYCNADLPVYVDYINGCYGYWGQGTQVTVSS”, the “polyreactivity (PSR sort gate)” value is reported as “low polyreactivity”. With “QVQLVESGGGLVQAGGRLRLSCAASGRTFPGYDMGWYRQAPGKERELVAAITRSGGSTYYADSVKGRFTISRDNAKNTVYLQMNSLKPEDTAVYYCATERHFYYSTFYYWGQGTQVTVSS” the “polyreactivity (PSR sort gate)” value was “high polyreactivity”. With “QVQLVESGGGLVQAGGRLRLSCAASGRTFYYYAMGWYRQAPGKERELVASITYRGTRTNYADSVKGRFTISRDNAKNTVYLQMNILKPEDTAVYSCNAEVYTGYGYWGQGTQVTVSS” the “polyreactivity (PSR sort gate)” value was “high polyreactivity”. For “QVQLVESGGGLVQAGGRLRLSCAASGRTIDHYAMGWYRQAPGKERELVAAISTTGGSTYYADSVKGRFTISRDNAKNTVYLQMNSLKPEDTAVYYCAARGLRTGGYWGQGTQVTVSS”, the “polyreactivity (PSR sort gate)” value was “high polyreactivity”. With “QVQLVESGGGLVQAGGRLRLSCAASGRTIGVYAMGWYRQAPGKERELVAAISWSGGTTYYADSVKGRFTISRDNAKNTVYLQMNSLKPEDTGVYYCAADGEYPHSEDFEYWGQGTQVTVSS” the “polyreactivity (PSR sort gate)” value was “low polyreactivity”. For “QVQLVESGGGLVQAGGRLRLSCAASGRTLGANAMGWYRQAPGKERELVAAITDSGGSTYYADSVKGRFTISRDNAKNTVYLQMNSLKPEDTAVYYCAAKQAYSSTYVWPIFDYWGQGTQVTVSS”, the “polyreactivity (PSR sort gate)” value was “low polyreactivity”. For “QVQLVESGGGLVQAGGRLRLSCAASGRTLYRYVMVWYRQAPWKERELVAAISATAGSTYYADSVKGRFTISRDNAKNTVYLQMNSLTPEDTAVYYCAAEGYTLWYWLEFEYWGQGTQVTVSS”, the “polyreactivity (PSR sort gate)” value was “high polyreactivity”. In the case of “QVQLVESGGGLVQAGGRLRLSCAASGSIFAGYVMGWYRQAPGKERELVAAISKSGGSTYYADSVKGRFTISRDNAKNTVSLQMNSLKPEDTAVYYSAKDHYYVDYDYWGQGTQVTVSS”, the “polyreactivity (PSR sort gate)” value is reported as “high polyreactivity”. In the case of “QVQLVESGGGLVQAGGRLRLSCAASGSIFDYNGMGWYRQAPGKERELVATITLSTARTYYADSVKGRFTISRDNAKNTVYLQMNSLKPEDTAVYYCATRYPKFRRRNYWGQGTQVTVSS”, the “polyreactivity (PSR sort gate)” value is reported as “high polyreactivity”. With “QVQLVESGGGLVQAGGRLRLSCAASGSIFFAYAMGWYRQAPGKERELVAAITSGVSTNYADSVKGRFTISRDNAKNTVYLQMNSLKPEDTAVYYCNADFDYGFDAGVAVQVVIHDYWGQGTQVTVSS” the “polyreactivity (PSR sort gate)” value was “low polyreactivity”. With “QVQLVESGGGLVQAGGRLRLSCAASGSIFGRNAMGWYRAAPGKERELVAAITGSTYYADSVKGRFTSSRDNAKNTVYLQMNSLKPEDTAVYYCNADYDVGWTYDTEYNYWGQGTQVTVSS” the “polyreactivity (PSR sort gate)” value was “low polyreactivity”. For “QVQLVESGGGLVQAGGRLRLSCAASGSIFIGYAMGWYRPAPGKERELVAAISGSGSSTYYADSVKGRFTISRDNAKNTVYLQMNSLKPEDTAVYYCAARTYSRFTASTYYYWGQGTQVTVSS”, the “polyreactivity (PSR sort gate)” value was “high polyreactivity”. In the case of “QVQLVESGGGLVQAGGRLRLSCAASGSIFIYYAMGWYRQAPGKERELVAAISNGGSTNYADSVKGRFTISRDNAKNTVYLQMNSLKPEDTAVYYCNTDWGYFHGVRAYLGYGYWGQGTQVTVSS”, the “polyreactivity (PSR sort gate)” value is reported as “low polyreactivity”. In the case of “QVQLVESGGGLVQAGGRLRLSCAASGSIFPANAMGGSRQAPGKERELVAGISERGSSTYYADSVKGRFTISRDNAKNTVYLQMNSLKPEDTAVYYCAADDVGRYWSSTHNWARGDYWGQGTQVTVSS”, the “polyreactivity (PSR sort gate)” value is reported as “low polyreactivity”. In the case of “QVQLVESGGGLVQAGGRLRLSCAASGSIFQSYAMGWYRQAPGKERELVAVITGGGGSTYYADSVKGRFTISRDNAKNTVYLQMNSLKPEDTAVYYCAARPVTSYAYGSWGQGTQVTVSS”, the “polyreactivity (PSR sort gate)” value is reported as “low polyreactivity”. In the case of “QVQLVESGGGLVQAGGRLRLSCAASGSIFRFYAMGWYRQAPGKERELVASISSGGSTYYADSVKGRFTISRDNAKNTVYLKLNSLKAEDTAVYYCAHGFAQYGVDLDPGDYDYWGQGTQVTVSS”, the “polyreactivity (PSR sort gate)” value is reported as “low polyreactivity”. In the case of “QVQLVESGGGLVQAGGRLRLSCAASGSIFRRYAMGWYRQEPGKERELVAVITTDGSTYYADSVKGRFTISRDNAKNTVYLQMNSLKPEDTAVYYCAAEVYVIGDSGYDYWGQGTQVTVSS”, the “polyreactivity (PSR sort gate)” value is reported as “low polyreactivity”. With “QVQLVESGGGLVQAGGRLRLSCAASGSIFSRNAMGWDRQAPGQERELVAAITRSGGRTYYADSVKGRCTLSRDNAKTTVYLQMNSLKPEDTAVYYCNALASQEYDYWGQGTQVTVSS” the “polyreactivity (PSR sort gate)” value was “high polyreactivity”. For “QVQLVESGGGLVQAGGRLRLSCAASGSIFSRYAMGWYRQAPGKERELVAAITSRGSGTNYADSVKGRFTISRDNAKNTVYLQMNSLKPEDTAVYYCNAARLPRLGWPTPYLYDYWGQGTQVTVSS”, the “polyreactivity (PSR sort gate)” value was “high polyreactivity”. For “QVQLVESGGGLVQAGGRLRLSCAASGSIFSYNAMGWYRQAPGKEREVVATISWSGGSTYYADSVKGPFTISRDYAKNTVFLQMNSLKPEDTGGYSCAARKYGQRYRRDYWGQGTQVTVSS”, the “polyreactivity (PSR sort gate)” value was “low polyreactivity”. With “QVQLVESGGGLVQAGGRLRLSCAASGSIFTYYVMGWYRQAPGKERELVAAITISGGSTYYADSVKGRFTISRDNAKNTVYLQMNRLNPEDTAVYYCAAEEVYYEADGFQNSYDYWGQGTQVTVSS” the “polyreactivity (PSR sort gate)” value was “high polyreactivity”. With “QVQLVESGGGLVQAGGRLRLSCAASGSIFVPNAMGWYRQALGKDRELVAAITYSGVDTYYADSVMGRFTISRDNAKNTVYLQMNSLKPEDTAVYYCAADNGRVGYDYWGQGTQVSVSS” the “polyreactivity (PSR sort gate)” value was “low polyreactivity”. For “QVQLVESGGGLVQAGGRLRLSCAASGSIFVYNALGWYRQAPGKQRELVAGITFIGGSTYYAESVKGRFTISRDNAKNTVYVQMNSRKPEDTAVYYCNKFPVSPPSYYWGQGTQVTVSS”, the “polyreactivity (PSR sort gate)” value was “low polyreactivity”. With “QVQLVESGGGLVQAGGRLRLSCAASGSIFYYNVMGWYRQAHGKQRELVAAITWSGGTTYYADSVKGRFTISRDNAKNTVYLQMNSLKPEDTAVYYCIAASPYSWGYRRGYLGQGTQVTVSS” the “polyreactivity (PSR sort gate)” value was “high polyreactivity”. In the case of “QVQLVESGGGLVQAGGRLRLSCAASGSIISYYAMGWYRQAPGKERELVATITSSGSTYADSVKGRFTISRDNAKNTVYLQMNSLKPEDTAVYYCNADSGYSEYWGVDVAYDYWGQGTQVTVSS”, the “polyreactivity (PSR sort gate)” value is reported as “low polyreactivity”. For “QVQLVESGGGLVQAGGRLRLSCAASGSILNFYAMGWYRQAPGKEREFVASISWDGASTYYADSVKGRFTISRDNAKNTVYLPMNSLKPEDTAVYYCAATRYYSFWGQGTQVTVSS”, the “polyreactivity (PSR sort gate)” value was “low polyreactivity”. In the case of “QVQLVESGGGLVQAGGRLRLSCAASGSNFGLNALGWYRQAPGKERELVAAINSDADTYYADSVKGRFTISRDNAKNTVYLQMNSQKPADTAVYYCAADYYWDPFDSNFGHVPQEYESWGQGTQVTVSS”, the “polyreactivity (PSR sort gate)” value is reported as “low polyreactivity”. In the case of “QVQLVESGGGLVQAGGRLRLSCAASGSTFDPNAEGWYRPAPGKARELVAVIDSGDGTTYYADSVKGRVTISRDKAKNTVYLQMNSLKPEDTAVYYCAAEFHWWYAGYDYGYWGQGTQVTVSS”, the “polyreactivity (PSR sort gate)” value is reported as “low polyreactivity”. With “QVQLVESGGGLVQAGGRLRLSCAASGSTFDVYAMGWYRQAPGKERELVAVINTSGTRTYYADSVKGRFTISRDNAKNTVYLQRNSLKPEDTAVYYCNAGGHLEMNYWGQGTQVTVSS” the “polyreactivity (PSR sort gate)” value was “low polyreactivity”. With “QVQLVESGGGLVQAGGRLRLSCAASGSTFEVNAMGWYRQAPGKERELVAAISSSAGDTYYADSVKGRFTISRDNAKYTVYLQMNSLKPEDTAVYYCAADYGYSPFDYWGQGTQVTVSS” the “polyreactivity (PSR sort gate)” value was “low polyreactivity”. In the case of “QVQLVESGGGLVQAGGRLRLSCAASGSTFIDYAMGWYIHAPGKERELVAAITWDGSSTYYADSVKGRFTISRDNAKNTVYLQMNSLKPEDTAVYYCATDYAGQYPVDGQPIHDYWGQGTQVTVSS”, the “polyreactivity (PSR sort gate)” value is reported as “low polyreactivity”. With “QVQLVESGGGLVQAGGRLRLSCAASGSTFKSYVMGGSRQAPGKERELVAAISSGDSTYYADSVKGRFTISRDNAKNTVNLQMNSLKPEDTAVYYCAADPGYTVEPWEDDYWGQGTQVTVSS” the “polyreactivity (PSR sort gate)” value was “low polyreactivity”. With “QVQLVESGGGLVQAGGRLRLSCAASGSTFPTNVMGWYRQAPGKERELVAAITKRGSITYYADSVKGRFTISRDNAKNTVYLQMNSLKPEDTAVYYCAARKVAVRGYGYWGQGTQVTVSS” the “polyreactivity (PSR sort gate)” value was “high polyreactivity”. In the case of “QVQLVESGGGLVQAGGRLRLSCAASGSTFRPYAMGWYRQAPGKERELVAAITFNGDTYADSVKGRFTISRDNAKNTVYLQMNSLKPEDTAVYYCAARKWYYYLRPWTSVGGYYWGQGTQVTVSS”, the “polyreactivity (PSR sort gate)” value is reported as “high polyreactivity”. With “QVQLVESGGGLVQAGGRLRLSCAASGSTFSRYAMGWYRQAPGKERELVAAISWSGGITYYADSVKGRFTISRDNAKNTVYLQMNSLKPEDTAVYYCAARSRSWSGERGYWGQGTQVTVSS” the “polyreactivity (PSR sort gate)” value was “high polyreactivity”.
